Experimental data reported in US11104735B2, “Inhibition of cytokine-induced SH2 protein in NK cells” (The Walter and Eliza Hall Institute of Medical Research, priority 2015, dated 2021).

Assays:
JAK1 = JAK1 (Homo sapiens, UniProt P23458); test: In vitro kinase inhibition assay, JAK1 kinase domain (JH1) with STAT5b substrate peptide; assay type: biochemical
Description: Protein kinase assays, including high throughput kinase assays are known in the art as described in, e.g., in Babon et al. (2013) and Von Ahsen et al. (2005). In one exemplary embodiment 130 μM STAT5b peptide (SEQ ID NO:18 […]) is incubated with 5 nM human JAK1 (see SEQ ID NO:11 for corresponding amino acid sequence) at 25° C. for 30-60 min in 20 mM Tris pH 8.0, 100 mM NaCl, 5 mM 2-mercaptoethanol, 0.2 mg ml^−1 bovine serum albumin, 2 mM MgCl2, 100 μM ATP and 1 μCi γ-[^32P]ATP. […] After incubation, the reaction is spotted onto P81 phosphocellulose paper and quenched in 5% H3PO4. The paper is then washed (4×200 ml, 15 min) with 5% H3PO4 and exposed to a phosphorimager plate. Quantitation is performed using phosphorimager software and IC50 curves are then calculated based on integrated pixel counts.
Kinase inhibition assays were performed essentially as described (Babon et al., 2012). Briefly, 130 μM STAT5b peptide (SEQ ID NO:18 […]) was incubated with 5 nM JAK1 at 25° C. for 30-60 min in 20 mM Tris pH 8.0, 100 mM NaCl, 5 mM 2-mercaptoethanol, 0.2 mg ml^−1 bovine serum albumin, 2 mM MgCl2, 100 μM ATP and 1 mCi γ-[32P]ATP. […] After incubation, the reaction was spotted onto P81 phosphocellulose paper and quenched in 5% H3PO4. The paper was washed (4×200 ml, 15 min) with 5% H3PO4 and exposed to a phosphorimager plate (Fuji). Quantitation was performed using Fuji software and IC50 curves calculated using Graphpad Prism.

[1] = target: T1, JAK1 phosphopeptide (JAK1-Y1034) (Homo sapiens, UniProt P23458); test: ITC, CIS constructs binding to JAK1 phosphopeptide; conditions: CIS constructs with elongins B and C
T1 construct: purchased Genscript
Description: 300 μM phosphopeptides were titrated into a 30 μM solution of the GST-CIS-SH2-BC ternary complex. ITC titration curves are shown. The titration curves all fitted well to a single-site model.
Isothermal calorimetric titrations were performed with a Microcal ITC200 (GE Healthcare). Phosphopeptides were obtained from Genscript. An optimised GST-CIS protein construct was prepared in which the internal PEST region ([…]) was deleted. The resulting ternary GST-CIS-SH2-SB complexes were dialysed against buffer (20 mM Tris pH 8.0, 100 mM NaCl, 2 mM 2-mercaptoethanol). Experiments were performed at 298 K unless stated otherwise. Typically, 12×3.15 μl injections of 300 μM phosphopeptides were titrated into a 30 μM solution of the GST-CIS-SH2-SB ternary complex. The heat of dilution of GST-CIS-SH2-BC was subtracted from the raw data of the binding experiment. Data were analysed using the evaluation software, Microcal Origin version 5.0. The binding curve fitted a single-site binding mode and all KD values were determined from duplicate experiments.

Chain of JAK1 (P23458 875-1153 limits assumed): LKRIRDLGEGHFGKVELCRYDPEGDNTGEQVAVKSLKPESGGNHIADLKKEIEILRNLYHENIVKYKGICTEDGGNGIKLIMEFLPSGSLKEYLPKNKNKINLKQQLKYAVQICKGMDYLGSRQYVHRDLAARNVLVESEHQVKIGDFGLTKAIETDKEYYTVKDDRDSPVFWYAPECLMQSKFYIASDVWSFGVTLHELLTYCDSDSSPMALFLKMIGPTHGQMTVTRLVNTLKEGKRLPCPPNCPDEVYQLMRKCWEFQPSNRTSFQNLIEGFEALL

Row | Molecule | IC50 (JAK1; JAK1 JH1, in vitro kinase reaction, read-out: IC50, inhibition of JAK1 phosphorylation of a substrate peptide) | Inhibition of JAK1 relative to inhibition of JAK2, JAK3 or TYK2 (JAK1; JH1 domains of all four JAKs) | Lower efficiency of JAK1 inhibition than SOCS1 (JAK1; compared with SOCS1) | Binding affinity (ITC) to JAK1 phosphopeptide [1]
1 | CIS-SH2-BC complex: recombinant trimeric complex of human GST-CIS construct (hCIS-SH2; residues 66-258) and Elongins B and C (protein, left off: small tags and cut ends, recombinant trimeric complex of human GST-CIS construct (hCIS-SH2; residues 66-258) and Elongins B and C) MVLCVQGSCPLLAVEQIGRRPLWAQSLELPGPAMQPLPTGAFPEEVTEETPVQAENEPKVLDPEGDLLCIAKTFSYLRESGWYWGSITASEARQHLQKMPEGTFLVRDSTHPSYLFTLSVKTTRGPTNVRIEYADSSFRLDSNCLSRPRILAFPDVVSLVQHYVASCAADTRSDSPDPAPTPALPMSKQDAPSDSVLPIPVATAVHLKLVQPFVRRSSARSLQHLCRLVINRLVADVDCLPLPRRMADYLRQYPFQL | 120 ± 20 nM | ≥ 20 fold | 100 fold | –
2 | CIS-ΔN34: human CIS lacking the N-terminal 34 residues, in complex with elongins B and C (protein, UniProt Q9NSE2 35-258, looked up, fragment, complex with elongins B and C) QPLPAGAFLEEVAEGTPAQTESEPKVLDPEEDLLCIAKTFSYLRESGWYWGSITASEARQHLQKMPEGTFLVRDSTHPSYLFTLSVKTTRGPTNVRIEYADSSFRLDSNCLSRPRILAFPDVVSLVQHYVASCTADTRSDSPDPAPTPALPMPKEDAPSDPALPAPPPATAVHLKLVQPFVRRSSARSLQHLCRLVINRLVADVDCLPLPRRMADYLRQYPFQL | – | – | – | greatest reduction in binding
